Source: US20120213844A1
Positions of bridges follow the written chain, without caps; N, C: chain ends. No end group written: not given here. PEG = not defined here

Target: human EGFR on tumor cells (human) (UniProt P00533)
Test: flow cytometry on A431 cells preincubated with 2 ug EGF, 2 uM bio-P190:avidin complex, 4 C

staining, fold over background: 20 fold
Binder: DPCTWEVWGRECLQ-{PEG-biotin} (disulfide 3-12 (inferred); reading uncertain) [Biotinylated-PEGylated P190]
